Reference: patent US8227408B2, “Leptin as an anti-amyloidogenic biologic and methods for delaying the onset and reducing Alzheimer's disease-like pathology” (Neurotez, Inc., priority 2005, dated 2012)

Tested on: BACE
Assay: BACE activity, APP and flotillin in sucrose gradient fractions of treated SY5Y cells (fluorescence quenching assay)
Assay type: cell-based, human
Method: In panel (a), Neuro2a cells stably transfected with hyg-sa134 were treated for about 2 h or about 5 h with about 100 ng/ml leptin, Ob (black); about 125 mg/ml cyclodextrin, CDX (striped gray); about 5 mg/ml cholesterol, Ch (pale gray); and leptin plus cholesterol, Ob+Ch (medium gray). Media were collected and assayed for total Aβ by ELISAs (Figueiredo-Pereira et al., J Neurochem. 72:1417-22 (1999)). […] Water soluble cholesterol (Sigma-Aldrich, Mo.) is a solution made of cholesterol balanced with CDX (40 mg cholesterol per gr CDX). […] Extracts prepared from harvested cells were analysed by SDS-PAGE and Western blotting using an antibody directed against the C-terminal fraction of APP (C-APP, lanes 1-4) or actin (top lanes 5-8) or full-length APP (bottom lanes 5-8). […] Fractions collected from the bottom of the gradient were analysed by SDS-PAGE and Western blotting for the detection of APP and flotillin (marker for lipid rafts). […] In panel (e), fractions collected as above were assayed for β-secretase activity using a fluorescence-quenching assay (QTL Biosystems, NM). The results are expressed as the percent distribution of BACE activity within the gradient derived from cell cultures in the absence (black) or presence (gray) of leptin in the medium. […]

B1: Leptin: peptide hormone controlling adaptive metabolic mechanisms to energy availability; leptin (Harbor-UCLA) in vitro, recombinant murine leptin in mice (protein, UniProt P41160 22-167, looked up)
Leptin: VPIQKVQDDTKTLIKTIVTRINDISHTQSVSAKQRVTGLDFIPGLHPILSLSKMDQTLAVYQQVLTSLPSQNVLQIANDLENLRDLLHLLAFSKSCSLPQTSGLQKPESLDGVLEASLYSTEVVALSRLQGSLQDILQQLDVSPEC
activity of BACE in the low density fractions (about 400 ng/ml leptin, about 5 h, sucrose gradient fractions): almost absent | flotillin migration / elution position on sucrose gradient (compared to controls): migrated at heavier subcellular fractions
